Test results published in PMC3463355.

Columns and labels:
[1] = target: PARP-1 (full-length) (human, UniProt P09874 1-1014, V762A); assay: HI-FI FRET
[2] = target: N-parp (Zn1-Zn3 and BRCT) (UniProt P09874 1-486); assay: HI-FI FRET
Sequence of N-parp (Zn1-Zn3 and BRCT) (P09874 1-486): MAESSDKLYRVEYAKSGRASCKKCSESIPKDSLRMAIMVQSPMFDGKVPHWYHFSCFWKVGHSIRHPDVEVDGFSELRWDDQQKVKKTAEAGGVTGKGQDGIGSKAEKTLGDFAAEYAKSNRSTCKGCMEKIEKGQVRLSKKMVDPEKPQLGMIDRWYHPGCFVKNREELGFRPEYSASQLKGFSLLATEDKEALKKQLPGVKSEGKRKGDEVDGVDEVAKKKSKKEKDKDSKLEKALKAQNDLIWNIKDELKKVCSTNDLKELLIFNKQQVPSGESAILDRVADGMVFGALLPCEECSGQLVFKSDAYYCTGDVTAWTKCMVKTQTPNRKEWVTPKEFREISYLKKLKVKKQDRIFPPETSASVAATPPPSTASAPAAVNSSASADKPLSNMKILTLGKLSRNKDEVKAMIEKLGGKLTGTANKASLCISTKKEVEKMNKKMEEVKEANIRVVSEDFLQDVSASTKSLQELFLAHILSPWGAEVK

Sequence of PARP-1 (full-length) (P09874 whole entry V762A): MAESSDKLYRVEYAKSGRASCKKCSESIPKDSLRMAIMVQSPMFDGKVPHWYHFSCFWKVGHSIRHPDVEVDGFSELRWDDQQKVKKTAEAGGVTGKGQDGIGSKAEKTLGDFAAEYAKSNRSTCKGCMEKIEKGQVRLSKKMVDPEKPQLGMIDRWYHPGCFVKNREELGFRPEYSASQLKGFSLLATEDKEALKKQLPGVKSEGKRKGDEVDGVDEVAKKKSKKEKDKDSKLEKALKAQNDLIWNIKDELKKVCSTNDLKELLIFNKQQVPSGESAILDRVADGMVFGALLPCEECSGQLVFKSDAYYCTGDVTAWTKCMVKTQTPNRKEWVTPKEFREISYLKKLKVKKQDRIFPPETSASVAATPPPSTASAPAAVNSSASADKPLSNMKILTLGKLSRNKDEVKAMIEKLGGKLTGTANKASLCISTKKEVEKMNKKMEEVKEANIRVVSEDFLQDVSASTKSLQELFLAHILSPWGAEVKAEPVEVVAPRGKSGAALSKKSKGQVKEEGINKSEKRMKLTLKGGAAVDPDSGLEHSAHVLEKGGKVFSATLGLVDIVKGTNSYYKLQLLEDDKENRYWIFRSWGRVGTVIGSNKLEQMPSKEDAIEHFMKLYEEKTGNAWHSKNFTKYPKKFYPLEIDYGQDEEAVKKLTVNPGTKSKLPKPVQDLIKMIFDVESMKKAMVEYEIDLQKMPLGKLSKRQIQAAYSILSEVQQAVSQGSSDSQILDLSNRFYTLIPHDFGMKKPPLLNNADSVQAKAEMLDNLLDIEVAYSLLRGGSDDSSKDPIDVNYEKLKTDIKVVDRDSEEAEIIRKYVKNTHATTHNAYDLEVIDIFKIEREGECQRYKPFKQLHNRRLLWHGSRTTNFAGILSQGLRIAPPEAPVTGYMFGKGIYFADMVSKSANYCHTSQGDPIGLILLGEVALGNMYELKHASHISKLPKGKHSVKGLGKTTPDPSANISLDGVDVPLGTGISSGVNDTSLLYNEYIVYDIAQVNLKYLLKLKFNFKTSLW

Binder	Kd [1] [µM]	Kd [2] [µM]
30Blunt (dsDNA) DNA 1: ATCAGATAGCATCTGTGCGGCCGCTTAGGG DNA 2: CCCTAAGCGGCCGCACAGATGCTATCTGAT	0.0317 ± 0.0069	0.0622 ± 0.0102
30AATT (dsDNA, 4 central bp of 30Blunt (TGTG) replaced by AATT) DNA 1: ATCAGATAGCATCAATTCGGCCGCTTAGGG DNA 2: CCCTAAGCGGCCGAATTGATGCTATCTGAT	0.0085 ± 0.0021	0.0257 ± 0.0009
